Measured values taken from US20220042033A1, “COMPOSITION AND METHOD FOR CONFERRING AND/OR ENHANCING TOLERANCE AGAINST HERBICIDES BY USING VARIANTS OF PPO” (FarmHannong Co., Ltd., priority 2017, published 2022).
Substitutions are numbered along the chain they refer to. Numbers in names are those of the source.

B1: R140A + A215C + Y422I: ApPPO1 (SEQ ID NO: 1) variant (protein)
chain: MPFTHLKPLNRLLGSPRARHPHVAPQAVSVTNTSTTRPGGRSSAPGIPGDAEYDVVIVGAGISGLTTAQALAKQYSDAVPRLLVTEARDCVGGNIITRRDGGYQWEEGPNSFQPSDAVLRAAVDAGVADRLVLGDPKAPAYVYWGGRLRATPSGPDVLTFDLLSLWGKLRAGLGAAGFKAPLPEREESVKEFVTRNLGEEVFQRLIEPFCSGVYCGDPAKLSMKAAFGKVYDLEKGGGSIVGGVLALMKARKQKPPEPRPADLPPKPKGQTVGSFDKGLVTLPSAIAEELGDRVVTGWKLESIDRSGDRFQLTYDTPQGRKKVSARSVALTVPAYTAASLLESRFPKLGKALSSIYYPPVASVALSYPETAILPERLGSDGHLAGFGQLHPRTQGVTTLGTIYASSLFPGRVPEGKVLLLSIFGGATNTRVATMPHGEIVSQVDKDLRKMLIRSDAESPHTVNVTVWPRAIPQFNVGHTDLIQEAKDDLASQGWQGLHLGGNYVAGVALGKCMEAGYKQAAELASHVKSLAT
modifications: Synthetic (Protoporphyrinogen IX oxidase (ApPPO1) of Auxenochlorella protothecoides)
B2: R140A + A215L + Y422M: ApPPO1 (SEQ ID NO: 1) variant (protein)
chain: B1 chain with C215L, I422M
modifications: Synthetic (Protoporphyrinogen IX oxidase (ApPPO1) of Auxenochlorella protothecoides)
B3: V213C + A215C + Y422I: ApPPO1 (SEQ ID NO: 1) variant (protein)
chain: B1 chain with A140R, V213C
modifications: Synthetic (Protoporphyrinogen IX oxidase (ApPPO1) of Auxenochlorella protothecoides)
B4: V213C + A215L + Y422M: ApPPO1 (SEQ ID NO: 1) variant (protein)
chain: B1 chain with A140R, V213C, C215L, I422M
modifications: Synthetic (Protoporphyrinogen IX oxidase (ApPPO1) of Auxenochlorella protothecoides)
B5: R140A + V213C + A215C + Y422I: ApPPO1 (SEQ ID NO: 1) variant (protein)
chain: B1 chain with V213C
modifications: Synthetic (Protoporphyrinogen IX oxidase (ApPPO1) of Auxenochlorella protothecoides)
B6: R140A + V213C + A215L + Y422M: ApPPO1 (SEQ ID NO: 1) variant (protein)
chain: B1 chain with V213C, C215L, I422M
modifications: Synthetic (Protoporphyrinogen IX oxidase (ApPPO1) of Auxenochlorella protothecoides)
B7: R140A + Y422I: ApPPO1 (SEQ ID NO: 1) variant (protein)
chain: B1 chain with C215A
modifications: Synthetic (Protoporphyrinogen IX oxidase (ApPPO1) of Auxenochlorella protothecoides)
B8: R140A + Y422T: ApPPO1 (SEQ ID NO: 1) variant (protein)
chain: B1 chain with C215A, I422T
modifications: Synthetic (Protoporphyrinogen IX oxidase (ApPPO1) of Auxenochlorella protothecoides)
B9: V213C + Y422I: ApPPO1 (SEQ ID NO: 1) variant (protein)
chain: B1 chain with A140R, V213C, C215A
modifications: Synthetic (Protoporphyrinogen IX oxidase (ApPPO1) of Auxenochlorella protothecoides)
B10: V164A: MxPPO (SEQ ID NO: 3) variant (protein)
chain: MHHMPRTTGMNVAVVGGGISGLAVAHHLRSRGTDAVLLESSARLGGAVGTHALAGYLVEQGPNSFLDREPATRALAAALNLEGRIRAADPAAKRRYVYTRGRLRSVPASPPAFLASDILPLGARLRVAGELFSRRAPEGVDESLAAFGRRHLGHRATQVLLDAAQTGIYAGDVEQLSVAATFPMLVKMEREHRSLILGAIRAQKAQRQAALPAGTAPKLSGALSTFDGGLQVLIDALAASLGDAAHVGARVEGLAREDGGWRLIIEEHGRRAELSVAQVVLAAPAHATAKLLRPLDDALAALVAGIAYAPIAVVHLGFDAGTLPAPDGFGFLVPAEEQRRMLGAIHASTTFPFRAEGGRVLYSCMVGGARQPGLVEQDEDALAALAREELKALAGVTARPSFTRVFRWPLGIPQYNLGHLERVAAIDAALQRLPGLHLIGNAYKGVGLNDCIRNAAQLADALVAGNTSHAP
modifications: Synthetic (Protoporphyrinogen IX oxidase (MxPPO) of Myxococcus xanthus)
B11: I168C: MxPPO (SEQ ID NO: 3) variant (protein)
chain: B10 chain with A164V, I168C
modifications: Synthetic (Protoporphyrinogen IX oxidase (MxPPO) of Myxococcus xanthus)
B12: A170C: MxPPO (SEQ ID NO: 3) variant (protein)
chain: B10 chain with A164V, A170C
modifications: Synthetic (Protoporphyrinogen IX oxidase (MxPPO) of Myxococcus xanthus)
B13: F329V: MxPPO (SEQ ID NO: 3) variant (protein)
chain: B10 chain with A164V, F329V
modifications: Synthetic (Protoporphyrinogen IX oxidase (MxPPO) of Myxococcus xanthus)
B14: L332T: MxPPO (SEQ ID NO: 3) variant (protein)
chain: B10 chain with A164V, L332T
modifications: Synthetic (Protoporphyrinogen IX oxidase (MxPPO) of Myxococcus xanthus)

These molecules were tested on ApPPO1 (assay: Herbicide tolerance test of ApPPO1 wild type and variants in PPO-deficient E. coli BT3(ΔPPO), growth on herbicide-containing LB agar). Conditions: relative to ApPPO1 WT, dark, up to 100 μM (FIGS. 7-12).
Assay type: cell-based, Auxenochlorella protothecoides
Protocol: Then, the extent of tolerance was evaluated.

| Molecule | Herbicide tolerance, flumioxazin |
| --- | --- |
| B1 | +++++ (more than 10,000 fold higher tolerance) |
| B2 | +++++ (more than 10,000 fold higher tolerance) |
| B3 | +++++ (more than 10,000 fold higher tolerance) |
| B4 | +++++ (more than 10,000 fold higher tolerance) |
| B5 | +++++ (more than 10,000 fold higher tolerance) |
| B6 | +++++ (more than 10,000 fold higher tolerance) |
| B7 | +++++ (more than 10,000 fold higher tolerance) |
| B8 | ++++ (1,000-9,999 fold higher tolerance) |
| B9 | +++++ (more than 10,000 fold higher tolerance) |

Same assay, conditions: relative to ApPPO1 WT, dark, up to 200 μM (FIGS. 7-12)

| Molecule | Herbicide tolerance, tiafenacil |
| --- | --- |
| B1 | +++++ (more than 10,000 fold higher tolerance) |
| B2 | +++++ (more than 10,000 fold higher tolerance) |
| B3 | +++++ (more than 10,000 fold higher tolerance) |
| B4 | +++++ (more than 10,000 fold higher tolerance) |
| B5 | +++++ (more than 10,000 fold higher tolerance) |
| B6 | +++++ (more than 10,000 fold higher tolerance) |
| B7 | +++++ (more than 10,000 fold higher tolerance) |
| B8 | ++++ (1,000-9,999 fold higher tolerance) |
| B9 | ++++ (1,000-9,999 fold higher tolerance) |

Same assay, conditions: relative to ApPPO1 WT, dark, up to 400 μM (FIGS. 7-12)

| Molecule | Herbicide tolerance, sulfentrazone |
| --- | --- |
| B1 | ++++ (1,000-9,999 fold higher tolerance) |
| B2 | ++++ (1,000-9,999 fold higher tolerance) |
| B3 | ++++ (1,000-9,999 fold higher tolerance) |
| B4 | ++++ (1,000-9,999 fold higher tolerance) |
| B5 | ++++ (1,000-9,999 fold higher tolerance) |
| B6 | ++++ (1,000-9,999 fold higher tolerance) |
| B7 | ++++ (1,000-9,999 fold higher tolerance) |
| B8 | +++ (100-999 fold higher tolerance) |
| B9 | +++ (100-999 fold higher tolerance) |

These molecules were tested on MxPPO (assay: PPO enzyme activity of purified MBP-fused MxPPO wild type and variants). Conditions: PPO enzyme activity of purified MxPPO protein, relative to wild type.
Assay type: biochemical, Myxococcus xanthus
Protocol: Thus, PPO proteins of wild type and variants were expressed as fused to MBP and were used for experiments.
The following process for purification of PPO protein was performed in a 4° C. cold room. […] The column was washed with 3 column volumes of buffer and the presence of protein in the washing solution was examined. When the protein was no longer detected, the washing procedure was terminated. Then, the MBP-PPO protein was eluted with approximately 2 column volumes of buffer containing 20 mM maltose. The protein concentration of each eluent was determined and the elution was stopped when the protein was no longer detected. Ten microliter of each fraction was investigated for protein quantification and SDS-PAGE analysis. The highly pure fractions of PPO protein variants were used for the enzyme assay.
Since protoporphyrinogen IX, a substrate of PPO protein, was not commercially available, it was chemically synthesized in the laboratory. Overall process was performed in dark under nitrogen stream. […] of protoporphyrin IX was dissolved in 20 ml of 20% (v/v) EtOH, and stirred under dark condition for 30 minutes. The obtained protoporphyrin IX solution was put into a 15 ml screw tube in an amount of 800 μl, and flushed with nitrogen gas for 5 minutes. To this, 1.5 g of sodium amalgam was added and vigorously shaken for 2 minutes. The lid was opened to exhaust hydrogen gas in the tube. Thereafter, the lid was closed and incubated for 3 minutes. The protoporphyrinogen IX solution was filtered using syringe and cellulose membrane filter. To 600 μl of the obtained protoporphyrinogen IX solution, approximately 300 μl of 2M MOPS [3-(N-morpholino) propanesulfonic acid] was added to adjust pH to 8.0. To determine the enzyme activity of PPO protein, a reaction mixture was prepared with the following composition (based on 10 ml): 50 mM Tris-Cl (pH 8.0); 50 mM NaCl; 0.04% (v/v) Tween 20; 40 mM glucose (0.072 g); 5 units glucose oxidase (16.6 mg); and 10 units catalase (1 μl).
Hundred and eighty microliters of a reaction mixture […] were placed in 96 well plates and 20 μl of purified PPO proteins were added. After 50 μl of the mineral oil was layered, the reaction was initiated by adding the substrate, protoporphyrinogen IX solution, to a final concentration of 50 μM. The reaction proceeded at room temperature for 30 min and the fluorescence of protoporphyrin IX was measured using Microplate reader (Sense, Hidex) (excitation: 405 nm; emission: 633 nm). To calculate the PPO enzyme activity, the protoporphyrinogen IX solution was kept open in the air overnight to oxidize the solution. To this, 2.7 N HCl was added, and the absorbance at 408 nm was measured. A standard curve was generated using standard protoporphyrin IX, and PPO activity was measured by calibration of protoporphyrin IX using the standard curve of protoporphyrin IX.
Activities of variants were presented relatively compared to that of wild type.

| Molecule | Activity (%) |
| --- | --- |
| B10 | 75% |
| B11 | 47% |
| B12 | 86% |
| B13 | 91% |
| B14 | 87% |
